Results on two substances are retold here after patent US20180185464A1.

This assay has as its target human DC-SIGN (human) (UniProt Q9NNX6). Put plainly: cell-based or functional assay.
UniProt Q9NNX6, sequence (Q9NNX6 whole entry): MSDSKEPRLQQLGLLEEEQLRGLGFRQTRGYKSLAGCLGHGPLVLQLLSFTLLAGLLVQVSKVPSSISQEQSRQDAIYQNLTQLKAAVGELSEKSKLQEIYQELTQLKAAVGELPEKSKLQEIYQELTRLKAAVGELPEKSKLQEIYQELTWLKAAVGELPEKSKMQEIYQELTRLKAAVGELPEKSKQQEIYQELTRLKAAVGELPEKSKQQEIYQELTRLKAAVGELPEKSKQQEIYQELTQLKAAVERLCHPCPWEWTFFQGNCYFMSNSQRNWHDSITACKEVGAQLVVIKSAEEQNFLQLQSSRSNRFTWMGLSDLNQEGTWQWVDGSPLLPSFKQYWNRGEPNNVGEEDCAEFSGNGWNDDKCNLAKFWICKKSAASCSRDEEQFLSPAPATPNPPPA

histidine tagged gp120 (gp120-6his) displayed an Internalisation (MFI) DC-SIGN transgenic CD11c+ cells, PBS wash; liposomes engrafted with gp120-6his 27.43 µg/mL, 37 C (unengrafted 74.3) of 118 and an Internalisation (MFI) DC-SIGN transgenic CD11c+ cells, imidazole wash; liposomes engrafted with gp120-6his 27.43 µg/mL, 37 C (unengrafted 77.2) of 126.

“histidine-tagged FliC (FliC-6his) (from UniProt P06179 2-495) (ligand)” displayed an Internalisation (MFI) DC-SIGN transgenic CD11c+ cells, PBS wash; liposomes engrafted with FliC-6his 23.04 µg/mL, 37 C (unengrafted 74.3) of 70.8 and an Internalisation (MFI) DC-SIGN transgenic CD11c+ cells, imidazole wash; liposomes engrafted with FliC-6his 23.04 µg/mL, 37 C (unengrafted 77.2) of 79.2.
